First the molecules themselves.
B1: unnamed (protein)
chain 1: QVQLVQPGAEVVKPGASVKLSCKTSGYTFTSNWMHWVKQAPGQGLEWIGEIDPSDSYTNYNQNFQGKAKLTVDKSTSTAYMEVSSLRSDDTAVYYCARGSNPYYYAMDYWGQGTSVTVSS
chain 2: EIVLTQSPAIMSASPGERVTMTCSASSGVNYMHWYQQKPGTSPRRWIYDTSKLASGVPARFSGSGSGTSYSLTISSMEPEDAATYYCHQRGSYTFGGGTKLEIK
B2: unnamed (protein)
chain 1: EVQLVESGGGLVQPGGSLRLSCAASGFSFSDFAMSWVRQAPGKGLEWVATIGRVAFHTYYPDSMKGRFTISRDNSKNTLYLQMNSLRAEDTAVYYCARHRGFDVGHFDFWGQGTLVTVSS
chain 2: DIQMTQSPSSLSASVGDRVTITCRSSETLVHSSGNTYLEWYQQKPGKAPKLLIYRVSNRFSGVPSRFSGSGSGTDFTLTISSLQPEDFATYYCFQGSFNPLTFGQGTKVEIK
B3: unnamed (protein)
chain 1: EVQLVESGGGVVQPGRSLRLSCSASGFDFTTYWMSWVRQAPGKGLEWIGEIHPDSSTINYAPSLKDRFTISRDNAKNTLFLQMDSLRPEDTGVYFCASLYFGFPWFAYWGQGTPVTVSS
chain 2: DIQLTQSPSSLSASVGDRVTITCKASQDVGTSVAWYQQKPGKAPKLLIYWTSTRHTGVPSRFSGSGSGTDFTFTISSLQPEDIATYYCQQYSLYRSFGQGTKVEIK
B4: unnamed (protein)
chain 1: EVQLVESGGGVVQPGRSLRLSCSASGFIFSRYDMSWVRQAPGKGLEWVAYISHGGAGTYYPDSVKGRFTISRDNSKNTLFLQMDSLRPEDTGVYFCARGGVTKGYFDVWGQGTPVTVSS
chain 2: DIQMTQSPSSLSASVGDRVTITCRASGNIHNYLTWYQQTPGKAPKLLIYNAKTLADGVPSRFSGSGSGTDYTFTISSLQPEDIATYYCQHFWSIPYTFGQGTKLQIT
B5: unnamed (protein)
chain 1: EVQLLESGGGLVQPGGSLRLSCAASGFTFSHYIMMWVRQAPGKGLEWVSGIYSSGGITVYADSVKGRFTISRDNSKNTLYLQMNSLRAEDTAVYYCAYRRIGVPRRDEFDIWGQGTMVTVSS
chain 2: DIQMTQSPSTLSASVGDRVTITCRASQSISSWLAWYQQKPGKAPKLLIYKASTLESGVPSRFSGSGSGTEFTLTISSLQPDDFATYYCQQYNTYWTFGQGTKVEIK
B6: unnamed (protein)
chain 1: QVQLVQSGAEVKKPGSSVKVSCKASGYTFTDYNMHWVRQAPGQGLEWIGYIYPYNGGTGYNQKFKSKATITADESTNTAYMELSSLRSEDTAVYYCARGRPAMDYWGQGTLVTVSS
chain 2: DIQMTQSPSSLSASVGDRVTITCRASESVDNYGISFMNWFQQKPGKAPKLLIYAASNQGSGVPSRFSGSGSGTDFTLTISSLQPDDFATYYCQQSKEVPWTFGQGTKVEIK
B7: unnamed (protein)
chain 1: QVTLRESGPALVKPTQTLTLTCTVSGFSLSAYSVNWIRQPPGKALEWLAMIWGDGKIVYNSALKSRLTISKDTSKNQVVLTMTNMDPVDTATYYCAGDGYYPYAMDNWGQGSLVTVSS
chain 2: DIVMTQSPDSLSVSLGERATINCRASKSVDSYGNSFMHWYQQKPGQPPKLLIYLASNLESGVPDRFSGSGSGTDFTLTISSLQAEDVAVYYCQQNNEDPRTFGGGTKVEIK
B8: unnamed (protein)
chain 1: QVQLVESGGGVVQPGRSLRLSCAASGFTFSSFGMHWVRQAPGKGLEWVAYISSGSFTIYYADSVKGRFTISRDNSKNTLYLQMNSLRAEDTAVYYCARMRKGYAMDYWGQGTLVTVSS
chain 2: DVVMTQSPLSLPVTLGQPASISCRSSQIIIHSDGNTYLEWFQQRPGQSPRRLIYKVSNRFSGVPDRFSGSGSGTDFTLKISRVEAEDVGVYYCFQGSHVPHTFGQGTKVEIK
B9: unnamed (protein)
chain 1: QVQLVQSGAEVMKPGSSVKVSCKASGYTFSWYWLEWVRQAPGHGLEWMGEIDPGTFTTNYNEKFKARVTFTADTSTSTAYMELSSLRSEDTAVYYCARFSHFSGSNYDYFDYWGQGTLVTVSS
chain 2: EIVMTQSPATLSVSPGERATLSCRASQSIGTNIHWYQQKPGQAPRLLIYYASESISGIPARFSGSGSGTEFTLTISSLQSEDFAVYYCQQSWSWPTTFGGGTKVEIK
B10: unnamed (protein)
chain 1: QVQLVQSGGGLVQPGGSLRLSCAASGFTFSSYYMSWVRQAPGKGLEWVSGIYSDGTTHYGDSVKGRFTISRDNAKNTVYLQLNSLRAEDTAMYYCAKGAGPTWWYALDAWGQGTLVTVSS
chain 2: DIQLTQSPSSVSVSVGERVTIDCKSSQSVLSASNTYLNWYQQKPGQAPQLLIYYASTRESGVPDRFSGSGSGTDFTLTISSLQAEDAAVYYCQQAYRAPVTFGQGTKLEIK

A short description of the series: patients with anti-drug antibodies; higher = more immunogenic.
For the protein B1, the “patients with anti-drug antibodies” value turned out to be 0%. The result for B2 reads 18%; that for B3, 0%; that for B4, 16.8%. Consider B5, for which the “patients with anti-drug antibodies” value worked out at 7%. B6: the “patients with anti-drug antibodies” value turned out to be 0%. For B7, the “patients with anti-drug antibodies” value was determined as 30%. With B8, the “patients with anti-drug antibodies” value worked out at 0%. Regarding B9, the “patients with anti-drug antibodies” value amounted to 6.3%.

For B10, the “patients with anti-drug antibodies” value was determined as 0%.

Source of the values: the FLAb antibody collection.
